B1: Palmitoyltransferase ZDHHC5 (Homo sapiens), Q9C0B5 (parent)
chain: MPAESGKRFKPSKYVPVSAAAIFLVGATTLFFAFTCPGLSLYVSPAVPIYNAIMFLFVLANFSMATFMDPGIFPRAEEDEDKEDDFRAPLYKTVEIKGIQVRMKWCATCRFYRPPRCSHCSVCDNCVEEFDHHCPWVNNCIGRRNYRYFFLFLLSLTAHIMGVFGFGLLYVLYHIEELSGVRTAVTMAVMCVAGLFFIPVAGLTGFHVVLVARGRTTNEQVTGKFRGGVNPFTNGCCNNVSRVLCSSPAPRYLGRPKKEKTIVIRPPFLRPEVSDGQITVKIMDNGIQGELRRTKSKGSLEITESQSADAEPPPPPKPDLSRYTGLRTHLGLATNEDSSLLAKDSPPTPTMYKYRPGYSSSSTSAAMPHSSSAKLSRGDSLKEPTSIAESSRHPSYRSEPSLEPESFRSPTFGKSFHFDPLSSGSRSSSLKSAQGTGFELGQLQSIRSEGTTSTSYKSLANQTRNGSLSYDSLLTPSDSPDFESVQAGPEPDPPLGYTSPFLSARLAQQREAERHPRLVPTGPTHREPSPVRYDNLSRHIVASLQEREKLLRQSPPLPGREEEPGLGDSGIQSTPGSGHAPRTSSSSDDSKRSPLGKTPLGRPAVPRFGKPDGLRGRGVGSPEPGPTAPYLGRSMSYSSQKAQPGVSETEEVALQPLLTPKDEVQLKTTYSKSNGQPKSLGSASPGPGQPPLSSPTRGGVKKVSGVGGTTYEISV
partner: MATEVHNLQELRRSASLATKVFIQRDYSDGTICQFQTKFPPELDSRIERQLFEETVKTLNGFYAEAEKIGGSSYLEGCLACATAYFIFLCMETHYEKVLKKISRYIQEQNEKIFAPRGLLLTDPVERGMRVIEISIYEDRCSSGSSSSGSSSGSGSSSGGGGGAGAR
B2: Golgin subfamily A member 7B (Homo sapiens), Q2TAP0 (parent)
chain: B1 partner

Assays:
[1] = variants of: B1; conditions: with gog7b_human GOLGA7B, Q2TAP0
[2] = variants of: B1; conditions: with gog7b_human GOLGA7B, Q2TAP0; remark: listed apart in the source
[3] = variants of: B2; conditions: with zdhc5_human ZDHHC5, Q9C0B5
[4] = variants of: B2; conditions: with zdhc5_human ZDHHC5, Q9C0B5; remark: listed apart in the source

## C236A;C237A;C245A
[1]
  effect of a mutation on the interaction: disrupting interaction strength

## C134S
[1]
  effect of a mutation on the interaction: with no effect
[2]
  effect of a mutation on the interaction: decreasing interaction strength

## MATEVHNLQELRRSASLATKVFIQRDYSDGTIAQFQTKFPPELDSRIERQLFEETVKTLNGFYAEAEKIGGSSYLEGALAAATAYFIFLAMETHYEKVLKKISRYIQEQNEKIFAPRGLLLTDPVERGMRVIEISIYEDRASSGSSSSGSSSGSGSSSGGGGGAGAR
[3]
  effect of a mutation on the interaction: with no effect
[4]
  effect of a mutation on the interaction: disrupting interaction strength
